We go through 7 molecules from patent publication US20230250190A1 (published 2023).

The EC50 is the concentration giving half of the maximal effect. Higher therefore signals weaker potency.

To fix the notation:
T1: S11 (sTn-MUC1) (PAPGSTAPPAHGVT(Neu5Ac-α(2-6)-GalNAc)SAPDT(Neu5Ac-a(2-6)-GalNAc)RPAPG-OH)
T1 peptide: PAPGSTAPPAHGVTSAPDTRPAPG

T2: S4 (sTn-MUC1) (PAPGSTAPPAHGVT(Neu5Ac-α(2-6)-GalNAc)SAPDTRPAPG-OH)
T2 peptide: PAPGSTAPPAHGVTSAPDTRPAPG

T3: S9 (sTn-MUC1) (PAPGSTAPPAHGVT(Neu5Ac-α(2-6)-GalNAc)S(Neu5Ac-a(2-6)-GalNAc)APDTRPAPG-OH)
T3 peptide: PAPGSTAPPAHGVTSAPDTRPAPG

T4: T8 (Tn-MUC1) (PAPGST(α-GalNAc)APPAHGVTSAPDT(α-GalNAc)RPAPG-OH)
T4 peptide: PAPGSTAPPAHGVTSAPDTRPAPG

T5: T3 (Tn-MUC1) (PAPGST(α-GalNAc)APPAHGVTSAPDTRPAPG-OH)
T5 peptide: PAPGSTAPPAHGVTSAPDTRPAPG

T6: T9 (Tn-MUC1) (PAPGSTAPPAHGVT(α-GalNAc)S(α-GalNAc)APDTRPAPG-OH)
T6 peptide: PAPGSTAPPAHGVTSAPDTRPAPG

T7: T4 (Tn-MUC1) (PAPGSTAPPAHGVT(α-GalNAc)SAPDTRPAPG-OH)
T7 peptide: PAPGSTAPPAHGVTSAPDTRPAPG

T8: T11 (Tn-MUC1) (PAPGSTAPPAHGVT(α-GalNAc)SAPDT(α-GalNAc)RPAPG-OH)
T8 peptide: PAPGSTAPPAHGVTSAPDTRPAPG

T9: T7 (Tn-MUC1) (PAPGS(α-GalNAc)T(α-GalNAc)APPAHGVTSAPDTRPAPG-OH)
T9 peptide: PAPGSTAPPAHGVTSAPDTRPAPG

B1: SEQ ID NO 9 (bivalent monospecific MUC1 IgG) (antibody, V domains shown)
VH: QVQLVQSGAEVKKPGASVKVSCKASGYTFNRHYIQWVRQAPGQGLEWMGTINPYDGSTHYAQKFQGRVTLTRDTSTTTVYMELSSLRSEDTAVYYCARDYMIGYVVFDYWGQGTLVTVSS
VL: not shown
B2: SEQ ID NO 5 (bivalent monospecific MUC1 IgG) (antibody, V domains shown)
VH: B1 VH with A24T, N30T, H32Y, T50V, H59N, L70V, T77F, I102R, V106I
VL: not shown
B3: SEQ ID NO 78 (bivalent monospecific MUC1 IgG) (antibody, V domains shown)
VH: QVQLVQSGAEVKKPGTSVKVSCKASGYSFIHYYIHWVRQAPGQGLEWVGVINPFDGSTNYAQKFQGRVTVTRDTSTSAVFMDLSSLRSEDTAVYYCARDNMIGYVLFDYWGQGTLVTVSS
VL: not shown
B4: SEQ ID NO 57 (bivalent monospecific MUC1 IgG) (antibody, V domains shown)
VH: B3 VH with Q6E, A9T, T16A, Q43R, V48M, K63N, A78T, Y109H
VL: not shown
B5: SEQ ID NO 45 (bivalent monospecific MUC1 IgG) (antibody, V domains shown)
VH: B3 VH with Q6E, A9T, T16A, Q43R, V48M, Y60S, K63N, A78T, I102L, Y109H
VL: not shown
B6: 106 (antibody, V domains shown)
VH: B1 VH with V11M, V20I, N30T, R31N, H32Y, T50V, H59N, K63R, Y109F
B7: 25 (antibody, V domains shown)
VH: QVQLVESGAEVKKPGASVKVSCKASGYTFARYYVHWVRQAPGQGLEWMGLINPYGGATNYAQNFQGRVTMTRDTSTSTVYMELSSLRSEDTAVYYCARDAMGGDSYFDYWGQGTLVTVSS

Where a chain is given by its changes, count along the chain named.

The first assay deals with T1, S11 (sTn-MUC1). Nature of the assay: glycopeptide array.
B1 had a concentration giving a half-maximal response (EC50) of 0.053 µg/mL.
Still for that read-out and setting: the same measure for B2: 0.296 µg/mL.
B3 had a 50% effective concentration (EC50) of 0.477 µg/mL. Against the preceding molecule, the EC50 is about 1.6-fold higher.
In turn, B4 had an EC50 of 0.939 µg/mL. Compared with the last molecule, the EC50 is about 2-fold higher.
Still for that read-out and setting: the figure for B5 is 4.06 µg/mL.

Another assay deals with T2, S4 (sTn-MUC1). Nature of the assay: glycopeptide array.
Regarding B1, the EC50 worked out at 0.031 µg/mL.
The same measure, in the same setting: the same measure for B2: 0.12 µg/mL; for B3: 0.039 µg/mL; for B4: 0.119 µg/mL.
Consider B5, for which the EC50 is 0.089 µg/mL.

For a further assay, the target named is T3, S9 (sTn-MUC1). Nature of the assay: glycopeptide array.
In turn, B1 returned an EC50 of 0.046 µg/mL.
Still for that read-out and setting: the same measure for B2: 0.137 µg/mL.
The same measure, in the same setting: the same measure for B3: 0.067 µg/mL; for B4: 0.16 µg/mL.
Still for that read-out and setting: the figure for B5 is 0.135 µg/mL.

The target of a further assay is T4, T8 (Tn-MUC1). Nature of the assay: glycopeptide array.
As to B1, the EC50 stood at 0.034 µg/mL.
Still for that read-out and setting: the figure for B2 is 0.123 µg/mL.
The molecule B6 showed a 50% effective concentration (EC50) of 0.036 µg/mL. This EC50 lies about 3.4-fold lower than the previous one.
As to B7, the EC50 came out at 0.113 µg/mL.
The same measure, in the same setting: the same measure for B3: 0.032 µg/mL; for B4: 0.114 µg/mL; for B5: 0.088 µg/mL.

The next assay concerns the target T5, T3 (Tn-MUC1). Nature of the assay: glycopeptide array.
The molecule B1 gave an EC50 of 21.6 µg/mL.
The same measure, in the same setting: the figure for B6 is 99.3 µg/mL; for B7 it is 38.6 µg/mL.
On to B3, for which a half-maximal effect (EC50) was put at 37.9 µg/mL.
In turn, B5 had an EC50 of 52.2 µg/mL.

A further assay concerns the target T6, T9 (Tn-MUC1). Nature of the assay: glycopeptide array.
For the molecule B1, the EC50 came out at 0.039 µg/mL.
On the same count and under the same terms, the figure for B2 is 0.113 µg/mL; for B6 it is 0.032 µg/mL; for B7 it is 0.119 µg/mL.
On to B3, for which a half-maximal effect (EC50) was put at 0.032 µg/mL.
The molecule B4 came in with an EC50 of 0.109 µg/mL.
Molecule B5 registered a concentration for a half-maximal effect (EC50) of 0.083 µg/mL.

The target in a further assay is T7, T4 (Tn-MUC1). Nature of the assay: glycopeptide array.
B1: the midpoint of the response, the EC50, lay at 0.031 µg/mL.
Same read-out and setting: the same measure for B2: 0.116 µg/mL.
On the same count and under the same terms, the same measure for B6: 0.037 µg/mL; for B7: 0.1 µg/mL; for B3: 0.034 µg/mL.
Molecule B4 yielded an EC50 of 0.112 µg/mL. This EC50 lies about 3.3-fold higher than the previous one.
Still for that read-out and setting: the figure for B5 is 0.084 µg/mL.

A further assay has as its target T8, T11 (Tn-MUC1). Nature of the assay: glycopeptide array.
Turning to B1, a half-maximal effect (EC50) was put at 0.041 µg/mL.
The same measure, in the same setting: the same measure for B2: 0.127 µg/mL.
Molecule B6 came in with an EC50 of 0.043 µg/mL.
On the same count and under the same terms, the same measure for B7: 0.129 µg/mL; for B3: 0.041 µg/mL.
Take B4: the EC50 was determined as 0.123 µg/mL. Compared with the last molecule, the EC50 is about 3-fold higher.
In turn, B5 yielded an EC50 of 0.093 µg/mL.

Another assay deals with T9, T7 (Tn-MUC1). Nature of the assay: glycopeptide array.
In turn, B1 displayed an EC50 of 64 µg/mL.
